Data: patent US11054425B2, “System and method for identification and characterization of transglutaminase species” (Roche Sequencing Solutions, Inc., priority 2014, dated 2021)

B1: KalbTGt1: KalbTG enzyme without propeptide, expressed and purified with ammonium (protein)
chain: MLAPPLAEDRSYRTWRVEDYVEAWERYHGREMTEDERENLARGCIGVTVVNLNREDLSNPPLNLSFGSLRTAEAVQAALNKIVDTHPSPAQYEAAVAKDPILKRLKNVVKALPSWIDSAKLKASIFSKRFYSWQNPDWSEERAHTTYRPDRETDQVDMSTYRYRARPGYVNFDYGWFDQDTNTWWHANHEEPRMVVYQSTLRHYSRPLQDFDEQVFTVAFAKKDGHHHHHHHH
modifications: synthetic peptide sequence - KalbTGt1-8xHis; K-albida_MTG; 8xHis-tag
notes: KalbTG enzyme without propeptide, expressed and purified with ammonium
B2: S. mobaraensis MTG: commercially available Streptomyces mobaraensis microbial transglutaminase (protein)
chain: MRIRRRALVFATMSAVLCTAGFMPSAGEAAADNGAGEETKSYAETYRLTADDVANINALNESAPAASSAGPSFRAPDSDDRVTPPAEPLDRMPDPYRPSYGRAETVVNNYIRKWQQVYSHRDGRKQQMTEEQREWLSYGCVGVTWVNSGQYPTNRLAFASFDEDRFKNELKNGRPRSGETRAEFEGRVAKESFDEEKGFQRAREVASVMNRALENAHDESAYLDNLKKELANGNDALRNEDARSPFYSALRNTPSFKERNGGNHDPSRMKAVIYSKHFWSGQDRSSSADKRKYGDPDAFRPAPGTGLVDMSRDRNIPRSPTSPGEGFVNFDYGWFGAQTEADADKTVWTHGNHYHAPNGSLGAMHVYESKFRNWSEGYSDFDRGAYVITFIPKSWNTAPDKVKQGWP
modifications: protein-glutamine gamma-glutamyltransferase
notes: commercially available Streptomyces mobaraensis microbial transglutaminase
B3: KalbTGt3: KalbTG enzyme from EcSlyD2-Xa-KalbTGt3-8×His after factor Xa and trypsin digest (protein)
chain: APLAPPLAEDRSYRTWRVEDYVEAWERYHGREMTEDERENLARGCIGVTVVNLNREDLSNPPLNLSFGSLRTAEAVQAALNKIVDTHPSPAQYEAAVAKDPILKRLKNVVKALPSWIDSAKLKASIFSKRFYSWQNPDWSEERAHTTYRPDRETDQVDMSTYRYRARPGYVNFDYGWFDQDTNTWWHANHEEPRMVVYQSTLRHYSRPLQDFDEQVFTVAFAKKDGGGSGHHHHHHHH
modifications: synthetic peptide sequence - KalbTGt3-8xHis-tag (post-trypsin digest); K-albida_MTG; 8xHis-tag
notes: KalbTG enzyme from EcSlyD2-Xa-KalbTGt3-8×His after factor Xa and trypsin digest

Tested on: Z-[GGGYRYRQGGGG (SEQ ID NO:75)]-OH
Experiment: GLDH assay of transglutaminase enzyme activity after storage
Type: biochemical
Conditions: 200 μM glutamine substrate, 10 mM cadaverine, 37° C., pH 7.4
Description: A further experiment was performed to determine the activity of KalbTG enzymes prepared from two different constructs, and stored at two different temperatures. The KalbTGt3 (SEQ ID NO:10) and KalbTGt1 (SEQ ID NO: 12) enzymes tested were obtained respectively from the EcSlyD2-Xa-KalbTGt3-8×His-tag construct (SEQ ID NO:8) and the EcSlyD2-Xa-KalbTGt1-8×His-tag construct (SEQ ID NO:11) described in Example 3. The activity of the two KalbTG enzymes was tested after storage at either 4° C. or −20° C. and compared against the activity of commercially available S. mobaraensis MTG according to a published protocol (Oteng-Pabi, et al., 2013. Analytical biochemistry 441(2): 169-173). In particular, assays were performed at 37° C. in 200 μl total volume. The assay mixture included 200 mM MOPS, 1 mM EDTA, and 1 mM DTT at pH 7.4. Further, α-ketoglutarate and NADH were added at a concentration of 500 μM, along with 2 U/ml GLDH, and between 0.1 μg and 1.0 μg of one of the transglutaminase enzymes. The glutamine substrate was 200 μM Z-[[…] (SEQ ID NO:75)]-OH, and the amine donor was 10 mM cadaverine, where Z represents a carboxybenzyl group. All data were collected in triplicate (average of 3 wells in a microtiter plate) and baseline activity (buffer without enzyme) subtracted.

| Molecule | Activity (storage 4 ° C.) | Activity (storage −20 ° C.) |
| --- | --- | --- |
| B1 | 1.4099 ± 0.1806 μmol NH3/min/mg Enzyme | 0.8630 ± 0.0259 μmol NH3/min/mg Enzyme |
| B2 |  | 1.1348 ± 0.0059 μmol NH3/min/mg Enzyme |
| B3 | 0.1501 ± 0.0011 μmol NH3/min/mg Enzyme | 0.1528 ± 0.0400 μmol NH3/min/mg Enzyme |
